Measurements published in patent publication US20100197581A1 (TIBOTEC PHARMACEUTICALS, published 2010).

Biological target: sCD4 induced HIV-1 IIIB Env complexes (gp120/gp41 native spikes) on HUTIIIB cells (clone 199-76) (HIV-1 IIIB; human, UniProt P04578 33-856; P01730 26-396)

B1: F105 (antibody, V domains shown)
VH: QVQLQESGPGLVKPSETLSLTCTVSGGSISSHYWSWIRQSPGKGLQWIGYIYYSGSTNYSPSLKSRVTISVETSKNQFSLKLTSMTAADTAVYYCARGPVPAVFYGDYRLDPWGQGTLVTVSS
VL: EIVLTQSPGTLSLSAGERATLSCRASQSVSSRYLAWYQQKPGQAPRLLIYGASSRATGIPDRFSGSGSGTDFTLTISRVEPEDFAVYYCQQYDNSVCTFGQGTKLEIK
  EC50: > 100 nM
